Source: patent US20160272693A1 (ZEALAND PHARMA A S, published 2016)
Each block holds one binder with its values, some of them ahead of it. *1 amine or outer side, *2 acyl side, *3 side chain or, on linkers, in order; H or OH if unused. Bridges are numbered along the chain shown (N, C = ends). [ ]: non-standard residue; d: D form. The star is where a group is joined. C20 diacid = O=C(O)CCCCCCCCCCCCCCCCCCC(=O)*; γGlu = O=C(O)[C@H](CCC(=O)[*:2])N[*:1]; Hyp = O=C(O)[C@@H]1C[C@@H](O)CN1; NMeI = CC[C@H](C)[C@H](NC)C(=O)O; Aad = N[C@@H](CCCC(=O)O)C(=O)O; Orn = NCCC[C@H](N)C(=O)O; Sar = CNCC(=O)O

Target: T1, human amylin receptor 3 (hAMYR3), hCTR2 co-expressed with human receptor activity modifying protein 3 (hRAMP3) (human, UniProt P30988 25-474; O60896 24-148)
T1 sequence (looked up) 1: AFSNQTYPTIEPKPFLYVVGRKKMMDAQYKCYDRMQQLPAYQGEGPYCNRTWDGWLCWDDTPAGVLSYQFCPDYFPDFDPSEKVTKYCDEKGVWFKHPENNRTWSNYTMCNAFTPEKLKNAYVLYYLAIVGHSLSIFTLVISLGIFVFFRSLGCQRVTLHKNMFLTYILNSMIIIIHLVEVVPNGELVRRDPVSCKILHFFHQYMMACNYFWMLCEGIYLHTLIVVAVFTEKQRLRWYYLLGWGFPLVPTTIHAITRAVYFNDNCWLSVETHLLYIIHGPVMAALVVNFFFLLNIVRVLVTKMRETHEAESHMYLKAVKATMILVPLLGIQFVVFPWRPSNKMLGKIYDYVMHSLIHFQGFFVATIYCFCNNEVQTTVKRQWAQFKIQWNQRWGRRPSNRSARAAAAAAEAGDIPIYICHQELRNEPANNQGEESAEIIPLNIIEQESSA
T1 sequence (looked up) 2: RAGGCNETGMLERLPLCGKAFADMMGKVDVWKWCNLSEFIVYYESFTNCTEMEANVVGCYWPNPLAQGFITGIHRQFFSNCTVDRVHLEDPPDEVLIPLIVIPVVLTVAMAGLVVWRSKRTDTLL
Experiment: cell-based or functional assay

hAMYR3 EC50 (nM); cAMP induction: 0.26 nM
B1: [19CD]-isoGlu-R-C( )-GTAT-C( )-ATERLAHFLTRSSF-Gly(Me)-A-Ile(Me)-LSSTEVGSTT-Hyp-NH2 (Compd. 48) (peptide)
peptide: {C20 diacid}-[γGlu]RCGTATCATERLAHFLTRSSF[Sar]A[NMeI]LSSTEVGSTT[Hyp]-NH2
modifications: disulfide 3-8
SMILES: CC[C@H](C)[C@@H](C(=O)N[C@@H](CC(C)C)C(=O)N[C@@H](CO)C(=O)N[C@@H](CO)C(=O)N[C@H](C(=O)N[C@@H](CCC(=O)O)C(=O)N[C@H](C(=O)NCC(=O)N[C@@H](CO)C(=O)N[C@H](C(=O)N[C@H](C(=O)N1C[C@H](O)C[C@H]1C(N)=O)[C@@H](C)O)[C@@H](C)O)C(C)C)[C@@H](C)O)N(C)C(=O)[C@H](C)NC(=O)CN(C)C(=O)[C@H](Cc1ccccc1)NC(=O)[C@H](CO)NC(=O)[C@H](CO)NC(=O)[C@H](CCCNC(=N)N)NC(=O)[C@@H](NC(=O)[C@H](CC(C)C)NC(=O)[C@H](Cc1ccccc1)NC(=O)[C@H](Cc1c[nH]cn1)NC(=O)[C@H](C)NC(=O)[C@H](CC(C)C)NC(=O)[C@H](CCCNC(=N)N)NC(=O)[C@H](CCC(=O)O)NC(=O)[C@@H](NC(=O)[C@H](C)NC(=O)[C@@H]1CSSC[C@H](NC(=O)[C@H](CCCNC(=N)N)NC(=O)CC[C@H](NC(=O)CCCCCCCCCCCCCCCCCCC(=O)O)C(=O)O)C(=O)NCC(=O)N[C@@H]([C@@H](C)O)C(=O)N[C@@H](C)C(=O)N[C@@H]([C@@H](C)O)C(=O)N1)[C@@H](C)O)[C@@H](C)O

hAMYR3 EC50 (nM); cAMP induction: 0.19 nM
B2: [19CD]-isoGlu-R-C( )-GTAT-C( )-ATERLAHFLTRSSF-Gly(Me)-A-Ile(Me)-LSSTEVGS-Orn-TP-NH2 (Compd. 47) (peptide)
peptide: {C20 diacid}-[γGlu]RCGTATCATERLAHFLTRSSF[Sar]A[NMeI]LSSTEVGS[Orn]TP-NH2
modifications: disulfide 3-8
SMILES: CC[C@H](C)[C@@H](C(=O)N[C@@H](CC(C)C)C(=O)N[C@@H](CO)C(=O)N[C@@H](CO)C(=O)N[C@H](C(=O)N[C@@H](CCC(=O)O)C(=O)N[C@H](C(=O)NCC(=O)N[C@@H](CO)C(=O)N[C@@H](CCCN)C(=O)N[C@H](C(=O)N1CCC[C@H]1C(N)=O)[C@@H](C)O)C(C)C)[C@@H](C)O)N(C)C(=O)[C@H](C)NC(=O)CN(C)C(=O)[C@H](Cc1ccccc1)NC(=O)[C@H](CO)NC(=O)[C@H](CO)NC(=O)[C@H](CCCNC(=N)N)NC(=O)[C@@H](NC(=O)[C@H](CC(C)C)NC(=O)[C@H](Cc1ccccc1)NC(=O)[C@H](Cc1c[nH]cn1)NC(=O)[C@H](C)NC(=O)[C@H](CC(C)C)NC(=O)[C@H](CCCNC(=N)N)NC(=O)[C@H](CCC(=O)O)NC(=O)[C@@H](NC(=O)[C@H](C)NC(=O)[C@@H]1CSSC[C@H](NC(=O)[C@H](CCCNC(=N)N)NC(=O)CC[C@H](NC(=O)CCCCCCCCCCCCCCCCCCC(=O)O)C(=O)O)C(=O)NCC(=O)N[C@@H]([C@@H](C)O)C(=O)N[C@@H](C)C(=O)N[C@@H]([C@@H](C)O)C(=O)N1)[C@@H](C)O)[C@@H](C)O

hAMYR3 EC50 (nM); cAMP induction: 0.35 nM
B3: [19CD]-isoGlu-R-C( )-GTAT-C( )-ATERLA-Aad-FLTRSSF-Gly(Me)-A-Ile(Me)-LSSTEVGSST-Hyp-NH2 (Compd. 43) (peptide)
peptide: {C20 diacid}-[γGlu]RCGTATCATERLA[Aad]FLTRSSF[Sar]A[NMeI]LSSTEVGSST[Hyp]-NH2
modifications: disulfide 3-8
SMILES: CC[C@H](C)[C@@H](C(=O)N[C@@H](CC(C)C)C(=O)N[C@@H](CO)C(=O)N[C@@H](CO)C(=O)N[C@H](C(=O)N[C@@H](CCC(=O)O)C(=O)N[C@H](C(=O)NCC(=O)N[C@@H](CO)C(=O)N[C@@H](CO)C(=O)N[C@H](C(=O)N1C[C@H](O)C[C@H]1C(N)=O)[C@@H](C)O)C(C)C)[C@@H](C)O)N(C)C(=O)[C@H](C)NC(=O)CN(C)C(=O)[C@H](Cc1ccccc1)NC(=O)[C@H](CO)NC(=O)[C@H](CO)NC(=O)[C@H](CCCNC(=N)N)NC(=O)[C@@H](NC(=O)[C@H](CC(C)C)NC(=O)[C@H](Cc1ccccc1)NC(=O)[C@H](CCCC(=O)O)NC(=O)[C@H](C)NC(=O)[C@H](CC(C)C)NC(=O)[C@H](CCCNC(=N)N)NC(=O)[C@H](CCC(=O)O)NC(=O)[C@@H](NC(=O)[C@H](C)NC(=O)[C@@H]1CSSC[C@H](NC(=O)[C@H](CCCNC(=N)N)NC(=O)CC[C@H](NC(=O)CCCCCCCCCCCCCCCCCCC(=O)O)C(=O)O)C(=O)NCC(=O)N[C@@H]([C@@H](C)O)C(=O)N[C@@H](C)C(=O)N[C@@H]([C@@H](C)O)C(=O)N1)[C@@H](C)O)[C@@H](C)O
